In patent publication US20240083958A1, “G PROTEIN PEPTIDOMIMETICS” (VRIJE UNIVERSITEIT BRUSSEL, priority 2020, published 2024):
Read-outs that look alike come from different tables or passages of the source. Each block holds one molecule with its values, some of them ahead of it. Bridge positions count the residues as written; N and C are the ends. Square brackets hold non-standard residues; d marks the D form. Primed or numbered codes have the meaning given here. Azk = residue with azidated side chain, clicked to Pra; Pra′ = residue with alkynyl side chain, clicked to Azk; Cha = N[C@@H](CC1CCCCC1)C(=O)O

Tests used:
human β2AR [1] = target: T1, human β2AR (Homo sapiens, UniProt P07550, N187E); assay: Radioligand binding assay (RLA) with human β2AR, 3H-dihydroalprenolol (DHA) as radioligand, isoproterenol (agonist) as cold competitor, in presence and absence of the peptidomimetic
T1 construct: made in house; host or cells: Sf9 insect cells (Bac-to-Bac baculovirus); membrane extracts
Procedure: β2AR365N constructs were expressed in Sf9 insect cells, using the Bac-to-Bac® Baculovirus Expression System. The membrane extracts were prepared from cells that expressed β2AR. Subsequently, the cell pellet was resuspended in a buffer (1 ml buffer/2×1E7 cells) containing 75 mM Tris pH 7.4, 12.5 mM MgCl2, 1 mM EDTA, Leupeptin and PMSF as protease inhibitors. Afterwards the cells were vortexed and homogenized in ice using a small volume Ultraturrax (6×10 sec). The cells were then centrifuged for 15 min at 16000 rcf, in a pre-cooled centrifuge (4° C.) and resuspended in the previous buffer containing 10% sucrose. Finally, the membranes were again homogenized in ice with the small volume Ultraturrax (3×10 sec). The protein concentration in the membrane fragments was determined using a Pierce BCA Protein Assay Kit and the protein concentration was extrapolated from the Bovine Serum Albumine standard curve.
To perform the radioligand competition binding assays, 96-well plates were used. For the assays on β2AR, the membrane extracts as well as the peptides were prepared in a binding buffer (75 mM Tris pH 7.4, 12.5 mM MgCl2, 1 mM EDTA, 0.2% BSA). The ligand (isoproterenol) and radioligand ([^3H]-dihydroalprenolol) were dissolved in ligand buffer (75 mM Tris pH 7.4, 12.5 mM MgCl2, 1 mM EDTA, 0.2% BSA and 0.1% ascorbic acid), at 1 mM and 2 nM, respectively. A ten-fold dilution series of the ligand was prepared to obtain a dose response curve. For each reaction 100 μl membrane extract, 50 μl ligand, 50 μl peptide or binding buffer containing 1% DMSO and 50 μl of radioligand was added to the V-bottom storage plate, with a total volume of 250 μl per well. Afterwards, the plates were incubated at room temperature for 2 h on a plate shaker (150 rpm). The samples were harvested into filter plates and washed with ice cold washing buffer (75 mM Tris pH 7,4) using the 96-well harvester. The plates were dried for 1 h at 50° C. and then sealed to allow the addition of 30 μl scintillation liquid to each well. Finally, the top of each plate was sealed and the plates were placed in a Wallac MICROBETA® Trilux scintillation counter and incubated for 30 min in the dark.
(§1) After the Microbeta scintillation counter, the experimental data was further analyzed using Graphpad Prism 6.0. After normalization of the raw data, a nonlinear regression was used to fit the data in a one-site binding model, with the total binding set as 100% and the non-specific binding between 0 and 5%. The IC50 values, obtained from the competition curves, were used to determine the shift for each peptide, which is the ratio of IC50 of the agonist test compound on the basal conformation (e.g. IC50 β2AR with no peptidomimetic) versus the active conformation (e.g. IC50 β2AR+peptidomimetic) of the receptor. For certain peptide analogues, a biphasic binding curve was observed and therefore fitted by a two-site model (nonlinear regression), resulting in two IC50 values (IC50Hi and IC50Lo) and a FractionHi, the fraction of receptors in the active state.
Synthesised peptidomimetics were evaluated using a radioligand binding assay (RLA) with a human β2AR, using ^3H-dihydroalprenolol (DHA) as the radioligand and increasing concentrations of isoproterenol (agonist) as cold competitor. In particular, the pharmacological stabilization of the receptor in the active conformation was evaluated by performing the radioligand displacement assay (RLA) in the presence and absence of the peptidomimetics. This validated assay quantifies the pharmacological stabilization of the receptor in the active conformation by comparing the affinities of an agonist for the basal versus the active GPCR conformer (Pardon et al. (2018) Angewandte Chemie International Edition 57, 5292-5295). During the assay, the binding affinity of an orthosteric agonist for the receptor, in particular isoproterenol for human β2AR, in presence and absence of the allosteric peptidomimetic was determined. […]

[2] = target: dopamine 1 receptor (D1R) (Homo sapiens, UniProt P21728); assay: GPCR-radioligand binding assay (RLA) with dopamine 1 receptor (D1R), [3H]-SCH23390 as radiolabelled antagonist, A-77636 (agonist), in presence and absence of the peptidomimetic; conditions: Table 19; peptidomimetic at 10 μM; ratio IC50 D1R alone / IC50 D1R + peptidomimetic
dopamine 1 receptor (D1R) (Homo sapiens, UniProt P21728), sequence (P21728 whole entry): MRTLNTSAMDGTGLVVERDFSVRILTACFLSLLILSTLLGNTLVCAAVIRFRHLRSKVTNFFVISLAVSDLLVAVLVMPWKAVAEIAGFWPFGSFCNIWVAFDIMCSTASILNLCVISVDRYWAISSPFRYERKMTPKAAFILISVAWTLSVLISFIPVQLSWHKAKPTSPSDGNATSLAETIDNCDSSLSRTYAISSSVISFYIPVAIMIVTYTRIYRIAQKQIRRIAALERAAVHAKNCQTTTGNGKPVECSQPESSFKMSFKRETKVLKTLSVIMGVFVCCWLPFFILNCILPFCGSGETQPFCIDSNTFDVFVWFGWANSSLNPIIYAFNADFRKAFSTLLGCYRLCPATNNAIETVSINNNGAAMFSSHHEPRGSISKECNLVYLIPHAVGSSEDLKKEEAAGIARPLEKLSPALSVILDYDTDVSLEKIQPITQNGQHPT
Procedure: For the radioligand assays on D1R a similar buffer, as for β2AR, was used for the ligands, membrane extracts and peptides (+1% DMSO). The competition assay was performed with [^3H]-SCH23390 as radiolabelled antagonist, at a concentration of 2 nM. A ten-fold dilution series of the agonist, A-77636, was prepared to obtain a dose response curve, starting from 100 μM for the receptor alone and 10 μM in the presence of the peptidomimetics. After incubation, the samples were harvested into filter plates, pre-soaked with 0.5% polyethylenimine (PEI), and washed with ice cold washing buffer using the 96-well harvester. After drying in the oven during 1 h and the addition of scintillation liquid, the plates were placed in the MICROBETA® scintillation counter and incubated for 30 min in the dark before reading.
as §1
Peptidomimetics were screened using GPCR-radioligand binding assay (RLA) with dopamine 1 receptor (D1R) binding, using [^3H]-SCH23390 as radiolabelled antagonist, and increasing concentrations of A-77636 (agonist). The half maximal inhibitory concentration (IC50) represents the affinity of the agonist for the receptor. The selectivity is quantified by the shift. “[ ]” denotes cyclic peptides.

human β2AR [3] = target: T2, human β2AR (human, UniProt P07550 2-365); assay: cell-based or functional assay
human β2AR [4] = target: T2, human β2AR; assay: cell-based or functional assay; remark: listed apart in the source
human β2AR [5] = target: T2, human β2AR; assay: cell-based or functional assay; remark: listed apart in the source
human β2AR [6] = target: T2, human β2AR; assay: cell-based or functional assay; remark: listed apart in the source
human β2AR [7] = target: T2, human β2AR; assay: cell-based or functional assay; remark: listed apart in the source
human β2AR [8] = target: T2, human β2AR; assay: cell-based or functional assay; remark: listed apart in the source
human β2AR [9] = target: T2, human β2AR; assay: cell-based or functional assay; remark: listed apart in the source
human β2AR [10] = target: T2, human β2AR; assay: cell-based or functional assay; remark: listed apart in the source
human β2AR [11] = target: T2, human β2AR; assay: cell-based or functional assay; remark: listed apart in the source
human β2AR [12] = target: T2, human β2AR; assay: cell-based or functional assay; remark: listed apart in the source
[13] = target: dopamine 1 receptor (D1R) (UniProt P21728 1-446, limits assumed); assay: cell-based or functional assay
dopamine 1 receptor (D1R) (UniProt P21728 1-446, limits assumed), sequence (P21728 whole entry): as above

Molecule: Nb80 (VHH)
- IC50 (nM) of isoproterenol, [3H]-DHA RLA, Nb80 present (human β2AR [3]): 9.7 nM
- Shift (human β2AR [3]): 146

Molecule: FNDCRDIIQRMHLRQYELL [compound 2, Ac-FNDCRDIIQRMHLRQYELL-OH]
- Shift (human β2AR [1]; Table 1, ratio IC50 β2AR alone / IC50 β2AR + peptidomimetic): 6
- Shift [2]: 2

Molecule: Ac-RDIIQRMHLRQYELL-OH [compound 16]
- IC50 (nM) of isoproterenol, [3H]-DHA RLA, peptidomimetic present (human β2AR [4]): 614 nM

Other lines, results leading:

- Fraction HI (%) (human β2AR [1]; Table 10, peptidomimetic at 1 μM (printed 511 μM), fraction of receptors in the active state): 54%
- Fraction HI (%) (human β2AR [1]; Table 10, peptidomimetic at 10 μM, fraction of receptors in the active state): 76%
- Shift (human β2AR [1]; Table 10, peptidomimetic at 10 μM, ratio IC50 β2AR alone / + peptidomimetic): 175
- Fraction HI (%) (human β2AR [1]; Table 10, peptidomimetic at 50 μM, fraction of receptors in the active state): 79%
- Shift (human β2AR [1]; Table 10, peptidomimetic at 50 μM, ratio IC50 β2AR alone / + peptidomimetic): 170
- Fraction HI (%) (human β2AR [1]; Table 10, peptidomimetic at 100 μM, fraction of receptors in the active (high affinity) state, two-site model): 77%
- Shift (human β2AR [1]; Table 10, peptidomimetic at 100 μM, ratio IC50 β2AR alone / + peptidomimetic): 345
- Shift (human β2AR [1]; Table 10, ratio IC50 β2AR alone / + peptidomimetic): 21
- Shift [2]: 52
Molecule: Ac-KKKFN[PraCRDAzk]IQRMHLRQYEChaL-OH (Ac-KKKFN[Pra′]CRD[Azk]IQRMHLRQYE[Cha]L-OH; triazole 6-10) [compound 51]

- IC50 (nM) of isoproterenol, [3H]-DHA RLA, peptidomimetic present (human β2AR [5]): 47.3 nM
- Shift (human β2AR [5]): 20
- IC50 (nM) of isoproterenol, [3H]-DHA RLA, peptidomimetic present (human β2AR [6]): 38.9 nM
- IC50 (nM) of isoproterenol, [3H]-DHA RLA, peptidomimetic present (human β2AR [7]): 37.3 nM
- Shift (human β2AR [7]): 31
- Shift (averaged) (human β2AR [8]): 27
Molecule: Ac-FN[Pra′]CRD[Azk]IQRMHLRQYELL-OH (triazole 3-7) [compound 12]

- IC50 (nM) of isoproterenol, [3H]-DHA RLA, peptidomimetic present (human β2AR [4]): 118 nM
- IC50 (nM) of isoproterenol, [3H]-DHA RLA, peptidomimetic present (human β2AR [9]): 77.1 nM
- Shift (human β2AR [9]): 13
- IC50 (nM) of isoproterenol, [3H]-DHA RLA, peptidomimetic present (human β2AR [10]): 97.6 nM
- Shift (human β2AR [10]): 9
- IC50 (nM) of isoproterenol, [3H]-DHA RLA, peptidomimetic present (human β2AR [11]): 79.4 nM
- Shift (human β2AR [11]): 10
- Fraction HI (%) (human β2AR [12]): 21%
- IC50 (nM) of isoproterenol, [3H]-DHA RLA, peptidomimetic present (human β2AR [12]): 124 nM
- Shift (human β2AR [12]): 13
- Shift (averaged) (human β2AR [8]): 10
- IC50 (nM) of A-77636, [3H]-SCH23390 RLA, compound 2 at 10 µM [13]: 5.8 nM
Molecule: Ac-FNDCRDIIQRMHLRQYELL-OH [compound 2]
